In patent publication US6395526B1, “DNA polymerase” (Takara Shuzo Co., Ltd., priority 1995, dated 2002):
Entries after “also recorded” stand apart in the source; their conditions may differ.

Tests used:
activated DNA [1] = test: Optimum KCl and MgCl2 concentrations for DNA polymerase activity; type: biochemical, calf
Description: For a DNA polymerase preparation forming a complex of the translation products of ORF3 and ORF4 obtained in Example 3, namely the first DNA polymerase-constituting protein and the second DNA polymerase-constituting protein in a ratio at 1:1, optimum MgCl2 and KCl concentrations were firstly assayed. The DNA polymerase activity was assayed in a reaction system containing 20 mM Tris-HCl, pH 7.7, 2 mM 2-mercaptoethanol, 0.2 mg/ml activated DNA, and 40 μM each of dATP, dGTP, dCTP and dTTP in the presence of 2 mM MgCl2, while the KCl concentration was step by step increased from 0 to 200 mM KCl for each 20 mM increment. […] Next, the DNA polymerase activity was assayed in the same reaction system but in the presence of 60 mM KCl in this time, while the MgCl2 concentration was step by step increased from 0.5 to 25 mM MgCl2 for each 2.5 mM increment, to compare at each concentration.

[2] = system: substrate DNA (template-primer); test: DNA polymerase activity on different forms of substrate DNA (template-primer); type: biochemical
Description: The DNA polymerase activity was assayed using calf thymus DNA (manufactured by Worthington) activated by DNase I treatment (activated DNA) as a substrate. DNA activation and assay of DNA polymerase activity were carried out by the method described in DNA Polymerase from Escherichia coli, 263-276 (authored by C. C. Richardson), published by Harper & Row, edited by D. R. Davis.
An assay of enzyme activity was carried out by the following method. Specifically, 50 μl of a reaction solution [20 mM Tris-HCl (pH 7.7), 15 mM MgCl2, 2 mM 2-mercaptoethanol, 0.2 mg/ml activated DNA, 40 μM each of dATP, dCTP, dGTP and dTTP, 60 nM [^3H]-dTTP (manufactured by Amersham)], containing a sample for assaying its activity, was prepared and reacted at 75° C. for 15 minutes. A 40 μl portion of this reaction mixture was then spotted onto a DE paper (manufactured by Whatman) and washed with 5% Na2HPO4 five times. The remaining radioactivity on the DE paper was assayed using a liquid scintillation counter. The amount of enzyme which incorporated 10 nmol of [^3H]-dTMP per 30 minutes into the substrate DNA, assayed by the above-described enzyme activity assay method, was defined as one unit of the enzyme.
Next, in order to compare the selectivity of the DNA polymerase of the present invention for different forms of substrate DNA, the following template-primer was examined. Aside from the activated DNA used for conventional assay of the activity, those prepared as substrates include a thermal-denatured DNA prepared by treating the activated DNA at 85° C. for 5 minutes; M13-HT Primer prepared by annealing a 45-base synthetic deoxyribooligonucleotide of the sequence as shown by SEQ ID NO:6 in Sequence Listing as a primer to the M13 phage single stranded DNA (M13mp18 ssDNA, manufactured by Takara Shuzo Co., Ltd.); M13-RNA Primer prepared by annealing a 17-base synthetic ribooligonucleotide of the sequence as shown by SEQ ID NO:7 in Sequence Listing as a primer to the same M13 phage single stranded DNA; Poly dA-Oligo dT prepared by mixing polydeoxyadenosine (Poly dA, manufactured by Pharmacia) and oligodeoxythymidine (Oligo dT, manufactured by Pharmacia) in a 20:1 molar ratio; and Poly A-Oligo dT prepared by mixing polyadenosine (Poly A, manufactured by Pharmacia) and oligodeoxythymidine in a 20:1 molar ratio.
The DNA polymerase activity was assayed using these substrates in place of the activated DNA. The relative activity of each substrate when the activity obtained in the case of using an activated DNA as a substrate is defined as 100 is shown in Table 1. For comparison, the Pfu DNA polymerase and the Taq DNA polymerase derived from Thermus aquaticus (TaKaRa Taq, manufactured by Takara Shuzo Co., Ltd.) were also examined in the same manner.

[3] = system: 32P-labeled DNA fragment from pUC119 vector; test: Associated exonuclease activity; type: biochemical; details: 75° C.
Description: The exonuclease activity of the DNA polymerase of the present invention was assessed as follows: As a substrate for 5′→3′ exonuclease activity detection, a DNA fragment labeled with ^32P at the 5′-end was prepared by a process comprising digesting a pUC119 vector (manufactured by Takara Shuzo Co., Ltd.) with SspI (manufactured by Takara Shuzo Co., Ltd.), separating the resulting 386 bp DNA fragment by agarose gel electrophoresis, purifying the fragment, and labeling with [γ-^32P]-ATP and polynucleotide kinase. Also, as a substrate for 3′→5′ exonuclease activity detection, a DNA fragment labeled with ^32P at 3′-end was prepared by a process comprising digesting a pUC119 vector with Sau3AI, separating the resulting 341 bp DNA fragment by agarose gel electrophoresis, purifying the fragment, and carrying out a fill-in reaction using […] (manufactured by Amersham) and the Klenow fragment (manufactured by Takara Shuzo Co., Ltd.). […] The radioactivity existing in the supernatant was assayed using a liquid scintillation counter, and the amount of degradation by the exonuclease activity was calculated.
In the figure, the abscissa indicates the reaction time, and the ordinate indicates the ratio of radioactivity released into the supernatant relative to the radioactivity contained in the entire reaction mixture. […]

activated DNA [4] = test: Optimum pH and temperature of DNA polymerase activity; type: biochemical, calf; details: Tris-HCl in place of potassium phosphate; highest pH level used in the assay
Description: However, because the double stranded structure of the activated DNA used as a substrate for activity assay is destructed at higher temperatures, an accurate optimum temperature for the activity of the above enzyme has not been assayed. […] This level of the heat stability allows the use of the above enzyme for PCR method.
The optimum pH was then assayed. […], and preparing a reaction mixture comprising 20 mM potassium phosphate, 15 mM MgCl2, 2 mM 2-mercaptoethanol, 0.2 mg/ml activated DNA, 40 μM each of dATP, dCTP, dGTP and dTTP, and 60 nM [^3H]-dTTP. The results are shown in FIG. 3, wherein the abscissa indicates the pH, and the ordinate indicates the radioactivity incorporated in high-molecular DNA.

λ-DNA = details: reported, enzyme used alone; cited from earlier work
[5] = substrate M13-HT primer, activated DNA = 100
[6] = substrate M13-RNA primer, activated DNA = 100
[7] = substrate activated DNA (defined as 100)
[8] = substrate poly A-Oligo dT, activated DNA = 100
[9] = substrate poly dA-Oligo dT, activated DNA = 100
[10] = substrate thermal-denatured DNA, activated DNA = 100

| Substance | MgCl2 concentration of maximum activity (activated DNA [1]; in the absence of KCl) [mM] | KCl concentration of maximum activity (activated DNA [1]; in the presence of 2 mM MgCl2, 20 mM Tris-HCl pH 7.7) [mM] | MgCl2 concentration of maximum activity (activated DNA [1]; in the presence of 60 mM KCl) [mM] | Relative Activity [2, 5] | Relative Activity [2, 6] | Relative Activity [2, 7] | Relative Activity [2, 8] | Relative Activity [2, 9] | Relative Activity [2, 10] | 3′→5′ exonuclease activity ([3]; 3′-end labeled 341 bp fragment) | 5′→3′ exonuclease activity ([3]; 5′-end labeled 386 bp fragment) | pH of maximum activity (activated DNA [4]) | strand length of DNA amplifiable by PCR (λ-DNA) |
| --- | --- | --- | --- | --- | --- | --- | --- | --- | --- | --- | --- | --- | --- |
| DNA Polymerase of the Present Invention: complex of first (ORF3, SEQ ID NO:2) and second (ORF4, SEQ ID NO:4) DNA polymerase-constituting proteins from Pyrococcus furiosus | 17.5 | 60 | 10 | 170 | 52 | 100 | 0.085 | 94 | 340 | potent; also recorded: of the same level as that of the Pfu DNA polymerase | no 5′→3′exonuclease activity was observed | 8.02 |  |
| Taq DNA Polymerase: Taq DNA polymerase derived from Thermus aquaticus (TaKaRa Taq, manufactured by Takara Shuzo Co., Ltd.) [reference compound] |  |  |  | 90 | 38 | 100 | 0.063 | 290 | 130 |  |  |  | difficult to amplify a DNA fragment of not less than 10 kbp |
